From patent US20140178935A1 (AVEO PHARMACEUTICALS, published 2014)

Assays:
[1] = target: T1, recombinant human HGF (R&D Systems, Catalog No. 294-HGN-025) (human, UniProt P14210 32-728); test: cell-based or functional assay
[2] = target: hHGF-Fc G555E (recombinant hHGF protein containing a glycine to glutamate substitution at position 555) (human); test: SPR, antibody immobilized, HGF protein injected, 25 C
Protocol: (§1) Each antibody was immobilized on a carboxymethylated dextran CM5 sensor chip (BIAcore, Catalog No. BR-1006-68) by amine coupling (BIAcore, Catalog No. BR-1000-50) using a standard coupling protocol according to manufacturer's instructions.
(§2) Analyses were performed at 25° C. using PBS (GIBCO, Catalog No. 14040-133) containing 0.05% surfactant P20 (BIAcore, Catalog No. R-1000-54), 2 mg/mL BSA (EMD, Catalog No. 2930) and 10 mg/mL CM-Dextran Sodium salt (Fluka, Catalog No. 86524) as running buffer. […] The resulting binding was determined as resonance units (RU) over baseline 30 seconds after the end of injection. […] Non-specific binding was monitored by comparing binding to a control surface where mouse IgG (Rockland, Catalog No. 010-0102) was immobilized using the same amine coupling procedure.

[3] = target: hHGF-Fc C561R (recombinant hHGF protein containing a cysteine to arginine substitution at position 561) (human); test: as above
Sequence of hHGF-Fc C561R (recombinant hHGF protein containing a cysteine to arginine substitution at position 561) (human) (chain, as listed by the source C561R C561R limits assumed): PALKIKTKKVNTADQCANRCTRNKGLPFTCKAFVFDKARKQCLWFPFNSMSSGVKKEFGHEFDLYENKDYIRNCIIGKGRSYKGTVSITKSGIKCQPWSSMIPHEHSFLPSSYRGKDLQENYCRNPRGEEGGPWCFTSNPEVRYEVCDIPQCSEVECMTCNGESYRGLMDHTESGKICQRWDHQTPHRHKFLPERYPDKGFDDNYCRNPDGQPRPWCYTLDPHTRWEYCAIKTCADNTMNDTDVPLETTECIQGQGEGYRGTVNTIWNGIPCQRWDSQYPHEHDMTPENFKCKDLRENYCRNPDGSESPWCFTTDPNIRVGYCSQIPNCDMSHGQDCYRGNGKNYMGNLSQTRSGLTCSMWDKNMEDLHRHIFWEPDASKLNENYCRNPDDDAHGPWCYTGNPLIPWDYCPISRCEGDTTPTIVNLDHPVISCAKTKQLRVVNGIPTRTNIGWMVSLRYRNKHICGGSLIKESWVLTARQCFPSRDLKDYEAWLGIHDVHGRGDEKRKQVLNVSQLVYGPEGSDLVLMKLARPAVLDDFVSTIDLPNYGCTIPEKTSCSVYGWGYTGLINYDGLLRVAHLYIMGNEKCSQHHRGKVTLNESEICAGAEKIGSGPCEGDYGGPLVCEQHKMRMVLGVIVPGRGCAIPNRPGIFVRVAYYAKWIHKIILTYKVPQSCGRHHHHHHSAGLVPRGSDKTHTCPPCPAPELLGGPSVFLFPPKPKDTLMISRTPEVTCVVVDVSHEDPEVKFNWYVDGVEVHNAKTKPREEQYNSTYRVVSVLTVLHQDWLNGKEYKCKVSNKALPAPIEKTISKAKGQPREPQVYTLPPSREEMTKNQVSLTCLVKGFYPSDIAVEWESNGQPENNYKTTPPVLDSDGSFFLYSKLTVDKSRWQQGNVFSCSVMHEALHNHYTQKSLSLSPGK
Protocol: as §1, §2

[4] = target: T1, recombinant human HGF (R&D Systems, …); test: SPR, antibody captured by anti-mouse Ig, HGF injected, 25 C
Protocol: Rabbit anti-mouse immunoglobulins (BIAcore, Catalog No. BR-1005-14) were immobilized on carboxymethylated dextran CM5 sensor chips (BIAcore, Catalog No. BR-1006-68) by amine coupling (BIAcore, Catalog No. BR-1000-50) using a standard coupling protocol according to manufacturer's instructions. The analyses were performed at 25° C. using PBS (GIBCO, Catalog No. 14040-133) containing 0.05% surfactant P20 (BIAcore, Catalog No. BR-1000-54), 2 mg/mL BSA (EMD, Catalog No. 2930), and 10 mg/mL CM-Dextran Sodium salt (Fluka, Catalog No. 86524) as running buffer.
The antibodies were captured in an individual flow cell at a flow rate of 10 μL/min. Injection time was variable for each antibody to yield approximately 20 RU of antibody captured for each cycle. […] The dissociation phase was monitored for 15 or 90 minutes, depending on concentration. The surface then was regenerated with 10 mM Glycine-HCl, pH 1.7 (BIAcore, Catalog No. BR-1003-54) injected for 3 minutes at a flow rate of 60 μL/min before another cycle was initiated.
Kinetic parameters were determined using the kinetic function of the BIAevalutation software with reference subtraction.

T1 sequence (P14210 32-728 limits assumed): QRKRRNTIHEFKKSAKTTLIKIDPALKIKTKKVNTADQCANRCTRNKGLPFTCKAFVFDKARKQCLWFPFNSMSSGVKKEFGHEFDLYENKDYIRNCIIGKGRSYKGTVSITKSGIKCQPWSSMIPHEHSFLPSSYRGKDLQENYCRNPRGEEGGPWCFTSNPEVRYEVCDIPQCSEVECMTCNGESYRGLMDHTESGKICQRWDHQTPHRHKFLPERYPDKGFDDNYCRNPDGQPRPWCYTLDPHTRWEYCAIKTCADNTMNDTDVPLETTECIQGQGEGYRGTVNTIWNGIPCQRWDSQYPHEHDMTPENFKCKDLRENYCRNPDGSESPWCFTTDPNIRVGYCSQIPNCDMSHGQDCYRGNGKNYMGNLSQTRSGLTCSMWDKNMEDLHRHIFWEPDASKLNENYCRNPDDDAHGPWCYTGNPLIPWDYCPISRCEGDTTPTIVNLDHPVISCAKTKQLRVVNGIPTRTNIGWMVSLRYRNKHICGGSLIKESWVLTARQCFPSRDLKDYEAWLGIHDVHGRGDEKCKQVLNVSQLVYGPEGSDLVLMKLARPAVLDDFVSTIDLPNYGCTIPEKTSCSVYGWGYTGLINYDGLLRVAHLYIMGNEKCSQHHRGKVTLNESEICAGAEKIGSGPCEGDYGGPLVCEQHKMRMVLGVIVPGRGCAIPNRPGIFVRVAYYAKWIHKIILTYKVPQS
Sequence of hHGF-Fc G555E (recombinant hHGF protein containing a glycine to glutamate substitution at position 555) (human) (chain, as listed by the source G555E G555E limits assumed): as the sequence (chain, as listed by the source C561R C561R limits assumed) above, with G501E, R507C counted along it

- EC50, inhibition of HGF-stimulated c-Met phosphorylation in PC-3 cells, Average of Two Trials [1]: 0.287 nM
- binding result [2]: binds
- binding result [3]: binds
- Kd [4]: 0.0135 nM
- koff [4]: 2.1e-05 s⁻¹
- kon [4]: 1.6e+06 M⁻¹ s⁻¹
B1: anti-hHGF monoclonal antibody 2B8 (antibody, mouse IgG1, kappa)
heavy: QVQLQQPGAELVKPGTSVKLSCKASGYTFTTYWMHWVNQRPGQGLEWIGEINPTNGHTNYNEKFKSKATLTVDKSSSTAYMQLSSLTSEDSAVYYCARNYVGSIFDYWGQGTTLTVSSAKTTPPSVYPLAPGSAAQTNSMVTLGCLVKGYFPEPVTVTWNSGSLSSGVHTFPAVLQSDLYTLSSSVTVPSSTWPSETVTCNVAHPASSTKVDKKIVPRDCGCKPCICTVPEVSSVFIFPPKPKDVLTITLTPKVTCVVVDISKDDPEVQFSWFVDDVEVHTAQTQPREEQFNSTFRSVSELPIMHQDWLNGKEFKCRVNSAAFPAPIEKTISKTKGRPKAPQVYTIPPPKEQMAKDKVSLTCMITDFFPEDITVEWQWNGQPAENYKNTQPIMDTDGSYFVYSKLNVQKSNWEAGNTFTCSVLHEGLHNHHTEKSLSHSPGK
light: NIVMTQSPKSMSMSVGERVTLSCKASENVVSYVSWYQQKPAQSPKLLIYGASNRNTGVPDRFTGSGSATDFTLTISSVRAEDLADYHCGQSYNYPYTFGGGTRLEIKRADAAPTVSIFPPSSEQLTSGGASVVCFLNNFYPKDINVKWKIDGSERQNGVLNSWTDQDSKDSTYSMSSTLTLTKDEYERHNSYTCEATHKTSTSPIVKSFNRNEC
notes: Murine IgG1 kappa from hybridoma; also called murine 2B8; mouse 2B8
